# Data as given in publication doi:10.1101/2024.06.05.597643, “Identification and characterization of a human MORC2 DNA binding region that is required for gene silencing” (bioRxiv, 2024).
# T1: MORC2 wild type, dephosphorylated (Homo sapiens) (UniProt Q9Y6X9)
# T1 sequence: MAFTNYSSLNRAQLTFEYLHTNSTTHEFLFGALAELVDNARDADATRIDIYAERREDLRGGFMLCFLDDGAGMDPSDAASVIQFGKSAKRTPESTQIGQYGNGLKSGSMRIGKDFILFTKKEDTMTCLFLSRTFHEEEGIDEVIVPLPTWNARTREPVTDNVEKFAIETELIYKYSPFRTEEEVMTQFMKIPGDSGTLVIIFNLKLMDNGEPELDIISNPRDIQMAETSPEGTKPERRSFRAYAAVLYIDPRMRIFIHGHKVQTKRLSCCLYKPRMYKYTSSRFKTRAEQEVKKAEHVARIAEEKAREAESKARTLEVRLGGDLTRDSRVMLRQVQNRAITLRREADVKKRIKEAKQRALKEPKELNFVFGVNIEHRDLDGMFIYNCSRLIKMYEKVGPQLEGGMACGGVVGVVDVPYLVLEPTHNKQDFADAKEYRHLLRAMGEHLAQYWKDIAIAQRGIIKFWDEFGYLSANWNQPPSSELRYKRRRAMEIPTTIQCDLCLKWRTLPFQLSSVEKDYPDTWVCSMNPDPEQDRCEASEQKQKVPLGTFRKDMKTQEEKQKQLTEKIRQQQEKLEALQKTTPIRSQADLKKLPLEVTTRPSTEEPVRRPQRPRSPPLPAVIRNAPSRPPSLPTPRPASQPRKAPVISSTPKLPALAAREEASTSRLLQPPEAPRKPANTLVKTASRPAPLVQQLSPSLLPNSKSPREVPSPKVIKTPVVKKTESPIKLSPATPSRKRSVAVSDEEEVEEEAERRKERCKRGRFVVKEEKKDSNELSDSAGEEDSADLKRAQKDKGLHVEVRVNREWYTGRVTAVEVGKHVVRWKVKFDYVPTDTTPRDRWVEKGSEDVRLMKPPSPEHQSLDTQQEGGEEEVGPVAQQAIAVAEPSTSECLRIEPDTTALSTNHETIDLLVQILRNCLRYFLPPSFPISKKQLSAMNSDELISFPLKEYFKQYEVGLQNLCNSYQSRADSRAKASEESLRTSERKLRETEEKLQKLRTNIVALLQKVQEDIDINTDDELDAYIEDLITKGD
# B1: full-length human MORC2 (natural protein, UniProt Q9Y6X9 1-1032, looked up)
# chain: T1 sequence
# notes: Cloned into both 438-B (N-terminal His6-TEV) and 438-C (N-terminal His6-MBP-TEV); the tag was removed with TEV protease; also called wildtype MORC2; dephosphorylated MORC2; not shown: His6, N-terminal, cleaved
# B2: MORC2 coiled coil 3 (domain or fragment, human, UniProt Q9Y6X9 900-1032, looked up)
# chain: ALSTNHETIDLLVQILRNCLRYFLPPSFPISKKQLSAMNSDELISFPLKEYFKQYEVGLQNLCNSYQSRADSRAKASEESLRTSERKLRETEEKLQKLRTNIVALLQKVQEDIDINTDDELDAYIEDLITKGD
# notes: also called CC3; source: E. coli BL21 (DE3) RIL, purified (HisTrap, TEV cleavage, S75 SEC); not shown: His6, N-terminal, cleaved
# Experiments:
# [1] = target: T1, MORC2 wild type, dephosphorylated (Homo sapiens); assay: fluorescence anisotropy; conditions: FA: 50 mM NaCl, 3 mM MgCl2, 20 mM Na-HEPES pH 7.4, 1 mM TCEP, 10% glycerol, 0.025 mM ZnCl2, 50 ug/ml BSA, 1 nM nucleic acid, room temperature
# [2] = target: the molecule itself; assay: SEC-MALS; full-length MORC2 2 mg/mL, 150 mM NaCl, 3 mM MgCl2, 20 mM Na-HEPES pH 7.4, 0.5 mM TCEP, 1.5% glycerol, 0.025 mM ZnCl2, without AMP-PNP; Wyatt 030 column
# [3] = target: the molecule itself; assay: SEC-MALS; coiled coil 3 1.5 mg/mL, 150 mM NaCl, 3 mM MgCl2, 20 mM Na-HEPES pH 7.4, 0.5 mM TCEP, 1.5% glycerol, 0.025 mM ZnCl2; Wyatt 010 column
molecule,measurement,setting,value
ATATCGATGTATATATCTGACACGTGCCTGGAGACTAGGGAGTAATCCCCTTGGCGGTTAAAACGCGGGGGACAGCGCGTACGTGCGTTTAAGCGGTGCTAGAGCTGTCTACGACCAATTGAGCGGCCTCGGCACCGGGATTCTGATAT (double strand) [Nucleosome on 2-601-2 DNA],Kd,[1],16 nM
B1,stoichiometry N,[2],2
B2,stoichiometry N,[3],2
